Assay results published in patent US20220177596A1 (Bristol-Myers Squibb, published 2022).
Residue numbers refer to the chain shown, from its start. Numbers in names are those of the source. Read-outs that look alike come from different tables or passages of the source.

T1: hCD32a-H131-His (human, UniProt P12318 34-217)
T1 construct: Generated in house; captured on anti-His Fab; also called FcgRIIa-H131
T1 sequence: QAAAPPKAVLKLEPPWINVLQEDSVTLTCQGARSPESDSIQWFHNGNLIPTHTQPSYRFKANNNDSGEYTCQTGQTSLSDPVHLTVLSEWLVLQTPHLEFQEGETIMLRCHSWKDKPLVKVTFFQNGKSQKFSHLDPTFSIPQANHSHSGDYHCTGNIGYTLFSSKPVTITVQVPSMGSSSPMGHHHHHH

T2: hCD32a-R131-His (human, UniProt P12318 34-217)
T2 construct: Generated in house; captured on anti-His Fab; Allele R131 as printed; the database entry may carry H at that position; also called FcgRIIa-R131
T2 sequence: T1 sequence with H134R

T3: hCD32b-His (human, UniProt P31994 43-217)
T3 construct: Generated in house; captured on anti-His Fab; also called FcgRIIb
T3 sequence: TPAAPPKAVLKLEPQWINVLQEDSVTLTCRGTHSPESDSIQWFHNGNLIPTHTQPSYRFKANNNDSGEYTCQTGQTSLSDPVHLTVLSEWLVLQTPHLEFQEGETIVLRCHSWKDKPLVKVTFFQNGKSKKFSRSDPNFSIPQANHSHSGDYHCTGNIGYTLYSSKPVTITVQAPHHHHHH

B1: Y1238-P238K (antibody, human IgG1, kappa)
heavy: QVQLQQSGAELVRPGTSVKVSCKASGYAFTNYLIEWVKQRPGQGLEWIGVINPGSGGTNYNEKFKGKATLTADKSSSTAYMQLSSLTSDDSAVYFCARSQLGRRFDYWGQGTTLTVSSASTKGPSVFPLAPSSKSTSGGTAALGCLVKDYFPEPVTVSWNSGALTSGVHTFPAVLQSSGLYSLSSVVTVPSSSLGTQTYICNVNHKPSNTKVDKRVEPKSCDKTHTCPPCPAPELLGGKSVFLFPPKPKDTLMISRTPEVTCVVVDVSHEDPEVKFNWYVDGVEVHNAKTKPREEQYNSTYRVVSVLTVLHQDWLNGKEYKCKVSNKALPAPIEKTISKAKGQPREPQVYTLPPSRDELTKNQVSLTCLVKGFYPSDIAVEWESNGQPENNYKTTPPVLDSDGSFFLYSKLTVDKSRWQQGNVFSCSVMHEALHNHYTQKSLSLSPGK
light: DIVMTQSHKFMSTSVGDRVSITCKASQDVRTGVAWYQQKPGQSPKLLIYSASYRNTGVPDRFTGSRSGTDFTFTISSVQAEDLAVYYCQQHYSPPYTFGGGTKLEIKRTVAAPSVFIFPPSDEQLKSGTASVVCLLNNFYPREAKVQWKVDNALQSGNSQESVTEQDSKDSTYSLSSTLTLSKADYEKHKVYACEVTHQGLSSPVTKSFNRGEC
notes: Chimeric; also called chimeric Y1238-P238K
B2: Y1238-N297A (antibody, human IgG1, kappa, N297A)
heavy: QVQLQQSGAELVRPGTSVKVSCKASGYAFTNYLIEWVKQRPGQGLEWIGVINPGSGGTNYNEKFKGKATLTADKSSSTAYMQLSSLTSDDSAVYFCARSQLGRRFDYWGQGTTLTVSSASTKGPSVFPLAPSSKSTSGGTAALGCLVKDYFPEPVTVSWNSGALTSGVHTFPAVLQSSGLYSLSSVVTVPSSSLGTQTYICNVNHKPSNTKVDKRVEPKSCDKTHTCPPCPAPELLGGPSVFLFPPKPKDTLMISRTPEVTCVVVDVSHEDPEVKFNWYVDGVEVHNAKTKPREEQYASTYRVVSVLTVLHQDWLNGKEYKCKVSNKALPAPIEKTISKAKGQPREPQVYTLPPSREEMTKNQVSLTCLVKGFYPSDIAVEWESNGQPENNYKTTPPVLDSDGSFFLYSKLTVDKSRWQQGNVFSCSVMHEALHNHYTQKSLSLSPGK
light: B1 light
notes: Chimeric; also called chimeric Y1238-N297A
B3: Y1238-CTza (antibody, human IgG1, kappa)
heavy: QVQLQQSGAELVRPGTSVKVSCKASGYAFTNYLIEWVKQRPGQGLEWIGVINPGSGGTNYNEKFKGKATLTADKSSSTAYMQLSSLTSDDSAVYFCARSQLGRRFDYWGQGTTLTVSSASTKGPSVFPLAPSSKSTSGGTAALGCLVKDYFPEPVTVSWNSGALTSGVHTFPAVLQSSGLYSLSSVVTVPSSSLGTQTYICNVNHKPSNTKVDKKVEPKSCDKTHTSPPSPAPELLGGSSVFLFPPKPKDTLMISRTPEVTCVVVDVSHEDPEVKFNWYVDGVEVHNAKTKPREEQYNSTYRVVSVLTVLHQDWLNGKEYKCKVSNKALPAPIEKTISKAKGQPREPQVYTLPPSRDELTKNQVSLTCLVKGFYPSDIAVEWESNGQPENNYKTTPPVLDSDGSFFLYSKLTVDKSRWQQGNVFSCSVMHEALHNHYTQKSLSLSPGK
light: B1 light
notes: Chimeric; also called chimeric Y1238 CTza
B4: 5F11-45-IgG1f (antibody)
heavy: not shown
light: DIVLTQSPDSLAVSLGERATINCRASKNVDSYGNSFMHWYQQKPGQPPKLLIYRASNLESGVPDRFSGSGSGTDFTLTISSLQAEDVAVYYCQQSNEDPLTFGQGTKLEIKRTVAAPSVFIFPPSDEQLKSGTASVVCLLNNFYPREAKVQWKVDNALQSGNSQESVTEQDSKDSTYSLSSTLTLSKADYEKHKVYACEVTHQGLSSPVTKSFNRGEC
notes: Humanized anti-CD40, wild type human IgG1f
B5: 5F11-45-P238K (antibody, human IgG1, kappa)
heavy: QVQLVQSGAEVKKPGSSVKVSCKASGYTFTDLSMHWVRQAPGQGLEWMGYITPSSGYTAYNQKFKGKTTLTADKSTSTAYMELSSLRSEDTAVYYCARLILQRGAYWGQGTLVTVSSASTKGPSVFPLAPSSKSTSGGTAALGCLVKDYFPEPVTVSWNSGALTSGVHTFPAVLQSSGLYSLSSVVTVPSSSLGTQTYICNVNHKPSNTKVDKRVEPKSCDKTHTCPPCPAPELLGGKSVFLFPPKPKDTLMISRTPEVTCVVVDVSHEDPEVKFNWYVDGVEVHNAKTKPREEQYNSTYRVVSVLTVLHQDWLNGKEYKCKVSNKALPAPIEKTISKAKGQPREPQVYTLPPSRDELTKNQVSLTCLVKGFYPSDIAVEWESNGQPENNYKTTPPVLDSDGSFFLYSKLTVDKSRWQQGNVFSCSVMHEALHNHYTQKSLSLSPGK
light: B4 light
B6: 5F11-45-V11 (antibody, human IgG1, kappa)
heavy: QVQLVQSGAEVKKPGSSVKVSCKASGYTFTDLSMHWVRQAPGQGLEWMGYITPSSGYTAYNQKFKGKTTLTADKSTSTAYMELSSLRSEDTAVYYCARLILQRGAYWGQGTLVTVSSASTKGPSVFPLAPSSKSTSGGTAALGCLVKDYFPEPVTVSWNSGALTSGVHTFPAVLQSSGLYSLSSVVTVPSSSLGTQTYICNVNHKPSNTKVDKRVEPKSCDKTHTCPPCPAPELLGDDSVFLFPPKPKDTLMISRTPEVTCVVVDVSDEDGEVKFNWYVDGVEVHNAKTKPREEQYNSTYRVVSVLTVLHQDWLNGKEYKCKVSNKALPRPIEKTISKAKGQPREPQVYTLPPSREEMTKNQVSLTCLVKGFYPSDIAVEWESNGQPENNYKTTPPVLDSDGSFFLYSKLTVDKSRWQQGNVFSCSVMHEALHNHYTQKSLSLSPGK
light: B4 light
notes: Control with enhanced selectivity for hCD32b
B7: 5F11-45-SE (antibody, human IgG1, kappa)
heavy: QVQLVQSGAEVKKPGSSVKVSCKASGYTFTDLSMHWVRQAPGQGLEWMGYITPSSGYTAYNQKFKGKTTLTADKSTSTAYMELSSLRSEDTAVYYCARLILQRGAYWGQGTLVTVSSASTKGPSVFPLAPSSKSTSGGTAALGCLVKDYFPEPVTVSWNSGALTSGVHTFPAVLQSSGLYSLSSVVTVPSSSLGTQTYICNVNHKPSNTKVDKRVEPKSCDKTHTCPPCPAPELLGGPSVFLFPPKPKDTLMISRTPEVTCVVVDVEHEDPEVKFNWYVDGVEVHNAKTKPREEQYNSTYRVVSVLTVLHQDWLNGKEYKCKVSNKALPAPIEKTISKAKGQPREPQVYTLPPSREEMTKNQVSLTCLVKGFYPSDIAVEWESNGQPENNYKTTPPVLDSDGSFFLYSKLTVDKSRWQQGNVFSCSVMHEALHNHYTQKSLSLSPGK
light: B4 light
notes: also called S267E variant

Legend:
[1] = target: T4, hCD64-His (human, UniProt P12314 16-288, limits assumed); assay: SPR
T4 construct: Generated in house; captured on anti-His Fab; also called hFcgRI; FcgRI
T4 sequence (P12314 other isoform, or with tags, fused parts or gaps limits assumed): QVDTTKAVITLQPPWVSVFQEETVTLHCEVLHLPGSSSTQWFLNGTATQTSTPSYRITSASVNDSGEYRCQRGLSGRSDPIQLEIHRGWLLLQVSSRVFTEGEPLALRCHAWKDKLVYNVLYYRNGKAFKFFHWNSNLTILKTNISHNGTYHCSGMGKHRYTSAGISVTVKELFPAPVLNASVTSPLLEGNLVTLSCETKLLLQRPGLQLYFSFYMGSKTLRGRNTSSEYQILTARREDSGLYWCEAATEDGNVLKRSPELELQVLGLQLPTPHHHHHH
Description: (§1) FCGR BINDING SPR: FcgR binding can be measured in vitro using purified FcgRs using methods such as BIAcore™ surface plasmon resonance (SPR). One method tests the binding of purified antibodies to His-tagged FcgR proteins (FcgR-His) which are captured on the immobilized Fab fragment of an anti-His antibody. These experiments are performed on either a BIAcore™ T100 or BIAcore™ T200 instrument (GE Healthcare Life Sciences, Marlborough, Mass.) at 25° C. The Fab fragment from a murine anti-6×His antibody (generated in house) is immobilized on a CMS sensor chip using standard ethyl(dimethylaminopropyl) carbodiimide (EDC)/N-hydroxysuccinimide (NHS) chemistry with ethanolamine blocking, to a density of ˜3000 RU in a running buffer of 10 mM HEPES pH 7.4, 150 mM NaCl, 3 mM EDTA, 0.05% surfactant p20 (HBS-EP+). All remaining studies are performed using a running buffer of 10 mM NaPO4, 130 mM NaCl, 0.05% p20 (PBS-T) pH 7.1. Various FcγR proteins containing a C-terminal 6× poly-histidine tag (generated in house) are captured on this surface (typically using FcgR-his protein concentration of ˜7 μg/ml) using a contact time of 30 sec at 10 μl/min. Various concentrations of purified antibody are tested for binding, for example using an association time of 120 seconds at 30 μl/min, and a dissociation time of 120 seconds at 30 μl/min. FcgR proteins tested in these studies include the “high affinity” FcgR CD64 (hFcgRI), as well as the “low affinity” FcgRs CD32a-H131 (FcgRIIa-H131), CD32a-R131 (FcgRIIa-R131), CD32b (FcgRIIb), CD16a-V158 (FcgRIIIa-V158), and CD16b-NA2 (FcgRIIIb-NA2).

[2] = target: human CD40 on primary human cells (tonsillar B cells, immature dendritic cells) (human, UniProt P25942 21-277); assay: cell-based or functional assay
Chain of human CD40 on primary human cells (tonsillar B cells, immature dendritic cells) (P25942 21-277 limits assumed): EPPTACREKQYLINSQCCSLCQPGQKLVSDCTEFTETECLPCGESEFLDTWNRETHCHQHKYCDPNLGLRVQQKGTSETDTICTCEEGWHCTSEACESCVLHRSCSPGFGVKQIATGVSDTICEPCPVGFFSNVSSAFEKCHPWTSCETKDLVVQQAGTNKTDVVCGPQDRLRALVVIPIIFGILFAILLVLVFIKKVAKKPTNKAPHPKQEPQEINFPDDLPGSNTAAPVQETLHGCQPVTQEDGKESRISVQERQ

[3] = target: T5, human-CD40 monomer (human, UniProt P25942 21-193, limits assumed); assay: SPR, Ab captured on protein A, CD40 monomer analyte
T5 construct: also called hCD40-monomer; human-CD40-monomer protein
T5 sequence (P25942 21-193 limits assumed): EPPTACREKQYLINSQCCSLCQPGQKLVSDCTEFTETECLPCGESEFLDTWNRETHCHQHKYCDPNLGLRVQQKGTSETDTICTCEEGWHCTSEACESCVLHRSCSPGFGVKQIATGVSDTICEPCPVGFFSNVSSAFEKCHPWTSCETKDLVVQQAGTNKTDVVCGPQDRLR
Description: These chimeric antibodies were tested for CD40 and FcgR binding by SPR, as well as for iDC activation.

[4] = target: T1, hCD32a-H131-His; assay: SPR
Description: as §1

[5] = target: T2, hCD32a-R131-His; assay: SPR
Description: as §1

[6] = target: T3, hCD32b-His; assay: SPR
Description: as §1

[7] = target: T6, hCD16a-V158-His (human, UniProt P08637 17-208); assay: SPR
T6 construct: Generated in house; captured on anti-His Fab; Allele V158 as printed; the database entry may carry F at that position; also called FcgRIIIa-V158
T6 sequence (P08637 other isoform, or with tags, fused parts or gaps limits assumed): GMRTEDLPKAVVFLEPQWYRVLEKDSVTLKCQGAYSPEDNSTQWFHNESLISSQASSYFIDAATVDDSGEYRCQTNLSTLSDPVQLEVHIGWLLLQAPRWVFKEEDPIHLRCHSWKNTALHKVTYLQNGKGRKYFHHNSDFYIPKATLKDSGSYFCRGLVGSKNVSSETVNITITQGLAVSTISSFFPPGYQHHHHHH
Description: as §1

[8] = target: T5, human-CD40 monomer; assay: SPR, Ab captured on protein A, CD40 monomer analyte; remark: listed apart in the source
[9] = target: T4, hCD64-His; assay: SPR (BIAcore): 7 µg/ml hCD64-His captured on an anti-His Fab surface, 1 µM antibody as analyte
Description: as §1

| Binder | binding result [1] | IC50 for inhibition of proliferation of B cells, CD40L Trimer [2] [ng/mL] | IC50 for inhibition of proliferation of B cells, CHO CD40L [2] [ng/mL] | Kd [3] [nM] | koff [3] [s⁻¹] | kon [3] [M⁻¹ s⁻¹] | binding result [4] | binding result [5] | binding result [6] | binding result [7] | Kd [8] [nM] | koff [8] [s⁻¹] | kon [8] [M⁻¹ s⁻¹] | binding result [9] |
| --- | --- | --- | --- | --- | --- | --- | --- | --- | --- | --- | --- | --- | --- | --- |
| B1 | binds | 3.4 | 18.4 | 2.6 | 0.00026 | 97000 | – | – | – | – | – | – | – | – |
| B2 | binds | 3.6 | 17 | 2.5 | 0.00024 | 97000 | – | – | – | – | – | – | – | – |
| B3 | binds | – | – | 2.3 | 0.00023 | 100000 | – | – | – | – | – | – | – | – |
| B4 | – | – | – | – | – | – | binds | binds | binds | binds | 6.7 | 0.00046 | 69000 | binds |
| B5 | – | 10 | – | – | – | – | – | – | – | – | 3.3 | 0.00027 | 79000 | binds |
| B6 | – | – | – | – | – | – | – | – | binds | – | 3.9 | 0.0003 | 79000 | – |
| B7 | – | – | – | – | – | – | binds | binds | binds | – | 6.6 | 0.00047 | 71000 | – |
